According to the nanobody polyreactivity screen of Harvey et al. (2022):

Assay: yeast display, Sf9 membrane polyspecificity reagent, FACS + sequencing; frameworks hold sequencing errors
In short: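 Genes from sorted yeast were amplified by colony PCR, read by MiSeq 2 × 250 sequencing and filtered on CDR length. These cells carried a synthetic nanobody library in Saccharomyces cerevisiae BJ5465 and were sorted by FACS into low and high (top ~1%) gates on anti-HA and streptavidin fluorescence. Polyreactivity is labelled according to the gate of origin.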

Row | Sequence | polyreactivity (PSR sort gate)
1 | QVQLVESGGGLVQAGGSLRLSCAASGLIFIGYAKGWSRQAPGKERELVASIRGVGSTNYADSVKGRFTISRDNAKNTVYLQMHSLKPEDTAVYYCATSVDRALYTQTRGDYDYWGQGTQVTVSS | low polyreactivity
2 | QVQLVESGGGLVQAGGSLRLSCAASGIIFNSYAMGWYRQAPGKERELVAAITRAGRTYYADSVKGRFPISRDNAKNTVDLQMNSLKPEDTAVYYCAAAFLSRVQGYDSWGQGTQVTVSS | high polyreactivity
3 | QVQLVESGGGLVQAGGSLRLSCAASGSTSTTYTMGWYRQAPGKERELVAAISYSGGSTYYADSVKGRFTISRDNAKHTVYLQMNSLKPEDTAVYYCAAQSFVGWREYESWGQGTQVTVSS | high polyreactivity
4 | QVQLVESGGGLVQAGGSLRLSCADSGRHFSFNMGWYRQAPGKERELVAAISRRGGSTYYADSVKGRFTISRDNAKNTVYLQMNSLKPEYTAVYYCAVIPRQTYSGGGYDYWGQGTQVTVSS | high polyreactivity
5 | QVQLVESGGGLVQAGGSLRLSCAASGSIFPENAMGWYRQAPGKERELVAAINRGGSTYYADSVKGRFTISRDNAKNTVYLQMNSLKPVDTAVYYCAAEYSGWGYIFNYWGQGTQVTVSS | low polyreactivity
6 | QVQLVESGGGLVQAGGSLRLSCAASGITFDYYAMGWYRQAPGKERELVAAISWGGGSTYYADSVKGRFTISRDNAKNTVYLQMNSLKPEDTAVYYCAADIVSSPSSYVPPGDYWGQGSQVTVSS | low polyreactivity
7 | QVQIVESGGGLVQAGGSLRLSCAASGRIFVVNDMGWYRPATGKERELVAAINSGGRTNYADSVKGRFTISRDNAKNTVDLQMNSLKREATAVYFCNAKRTGPWFLHVPVYYWGQGTQVTVSS | low polyreactivity
8 | QVQLVESAGGLDQAGGSLRLSCAASGSIFYIYAMGWYRQAPGKERELVATISGSGGSTHYADSVKGRFTISRDNAKNSVYLQKNSLKPEDTAVYYCAADVLPYGYYWGQGPQVTVSS | low polyreactivity
9 | QVQLVESGGGLVQAGGSLRLICAASGRIFRGNAMGWYRQAPGKEMELVDTITIRGGSTYYADSVKGRFTISRDNAKNTVYLKMNSLIPEDTAVYYCNTRTYGYLTQKYDYWGQGTQVTVSS | high polyreactivity
10 | QVQLVESGGGLVQAGGSLRLSCAASGSTFPFNAMGWYRQAPGKERELVAAITTSAGSTYYADSVKGRFTISRDNAKKTVYLQMNSLKPEDTAVYYCAARYVPPWGRRYYYWGQGTQVTVSS | high polyreactivity
11 | QVQLVESGGGLVQAGGSLRLSCAASGSTFDYYDRGWFRQAPGKERELVAAISSGGDSTYYADSVKGRFTISRDNEKNTVYLQMNSLKPEDTAVYYCAAAVYYGQSVWYYYWGQGTQVTVSS | high polyreactivity
12 | QVQLVESGGGLVQAGGSLRLSCAASGRTFFSYTMGWYRQAPGKERELVAAISDSDGRTYYADSVKGRFTISRDNAKNTVYLQMNSLKPEDTAVYYCAAVPDKYWSRVRRYLFEHNYWGQGTQVTVSS | low polyreactivity
13 | QVQLVESGAGLVQAGGSLRLSCAASGFTFAFYAMGWSRQAPGKERELVAAITGSGGSTYYADSVKGRFTISRDNAKNTVYLQMNSLIPEVTAVYYCNNYTYYSRMDYWGPGTQVTVSS | high polyreactivity
14 | QVQLVESGGGLVQAGGSLRLSCAASGRIFRYYVMGWYRQAPGKERELVAAISRSGGSTRYADSVKGRFTISRDNAKNTVYLQMNSLKPEDTAVYYCAATSRSYNDYDYWGQGTQVTVSS | high polyreactivity
15 | QVQLVESGGGLVQAGGSLRLSCAASGSIFTANAMGWYRQAPGKERELVAAISRSGGRTYYADSLKGRFTISRDNEKNTVYLQWKSLKPEDTAVYYCNVGRFNTSGYDYWGLGTQVTVSS | high polyreactivity
16 | QVQLVESGGGLVQAGGSLRLSCAASGRTFYIYAMGWYRQAPGKERELVAAISWSGGTTYYADSVKGRFTISRDHAKNTVYLQMNSLKPEDTAVYYCNVYPAYNYFDYDYWGQGTQVTVSS | high polyreactivity
17 | QVQLVESGGGLVQAGGSLRLSCSASGSIFRVYGMGWYRQAPGKERELVAAITWSGGSTYYADSVKGRFTISRDNAQNTVYLQMNSLKPEDTAVYYCAARARPRYYRQPYDYLGQGTQVTVSS | high polyreactivity
18 | QVQLVESGGGLVQAGGSLRLSCAASGITFNPYVMGWYRQAPGTERELVAVITSGGSTNYADSVKGRFTISRDNAKNTVYLQMNSLKPEDTAVYYCNVDRRPYYVWRVTYDYWGQGTQVTVSS | low polyreactivity
19 | QVQLVESGGCLVQAGGSLRLSCAASGFTFGPYDMGWYRQAPGKERELVAVIIGGDSTNYADSVKGRFTISRDNAKNTVYLQLNSLKPEVTAVYYCAADYIDRVGWMDYWGQGTQVTVSS | low polyreactivity
20 | QVQLVESGGGLVQAGGSLRLTCAASGSIFAKNAMGWYRQAPGKERELVAAIDLNGGSTYYADSVKGRFTISRDNAKNTDYLQMNSLKPEDTAVYYCAVYYGHSSVIRSSPEYDSWGQGTQVTVSS | low polyreactivity
21 | QVQLVESGGGLVQAGGSLRLSCAASGRIFSWYAMGWYRQAPGKERELVAAISWNGGSTYYADSVKGRFTISRDNAKNTVYLQMNSLKPEDTAVYYCAATYRHYGYDSWGQGTQVTVSS | high polyreactivity

Row | Sequence | polyreactivity (PSR sort gate)
22 | QVQHVESGGGLVQAGGSLRLCCAATGNTFGINAMGWYRQAPGKERELDASITGSAGSTYYADSVKGRFTISRDNAKNTVYLQMNSLKPEDTAVYYCNAGARGVMSQPWVIKYYYWGQGTQGTVSS | high polyreactivity
23 | QVQLEESGGGLVQAGGSLRLSCAASGRIFYDYAMGWYRKAPGKERELVATISWSAGIKYYADSVKGRFTISRDNAKNTVYLQMNSLKPEDTAVYYCAKVGRYTYSGQYDYWGQGTQVTVSS | high polyreactivity
24 | QVQLVESGGGLVQAGGSLRLSCAASGRTFRHDGMGWYRQAPGKERELVAAISRSGGRTYYADSVKGRFTISRDNAKNTVYLQMNSLKPEDTAVYYCNAPYDVTTYAFDYWGQGTQVTVSS | high polyreactivity
25 | QVQLVESGGGLVQAGGSLRLICAASGRTFDHNAMGWYRQAPGKERELVAAITWSGGITDYADSVKRPFTISRDNAKNTVYLQMNSLKPEDTAVWGQGTQVTVSS | low polyreactivity
26 | QVQLVESGAGLVQAGGSLRLSCAASGFIFEINAMGWYRQAPGKERELVAVITNSGGSTYYADSVKGRFTISRDNAKYTVYLQMNSLKPEDTAVYYCAADAVHYTNDWYDYWGQGTQVTVSS | low polyreactivity
27 | QVQLVESGGGLVQAGGSLRLSCAASGSIFGTYPMGWYRQAPGKERELVAAITRRGGSTFYADSVKGRFTISRDNAKNTVYLQMNSLKPEDTAVYYCAAPPYYWGQGTQVTVSS | high polyreactivity
28 | QVKLVESGGGLVHAGGSLRLSCSASGRIIGFNAMGVYRQAPGKERELVASIRTTGGSTRYADSVKGRFTISRDNAKNTVSLQMNSLKPEDTAVYYCAARWGKTRWQYNYWGHGTQVTVSS | high polyreactivity
29 | QVQLVESGGGLVQAGGSLRLSCAASGFTFELYDMGWYRQAPGKERELVARITRSGGSTNYADSVKGRFTISRDNAKNTVYLQMNSLKPEDTAVYYCAAKSPLFGLTSYPGPDDSWGQGTQVTVSS | low polyreactivity
30 | QVQLVESGGGLVQAGGSLRLSCAPSGRIFAYNTMGGYRQAPGKERELVAVSTSGGSTNYADSVKRRFTISRDNAKNTVYLQMNSLKTEDTAVYYCATLETTGVNYWGQGTQVTVSS | high polyreactivity
31 | QVQLQETGGGLFQAGVSLRLSCATSGSIFWGNAMGWYRQSPGKDRELVAAISWGGGRTYYADSVKGRFTISRDNAKITVYLQINSLKPEDTAVYSCNTRYPYVVSTGYDYWGQGTQVTVSS | high polyreactivity
32 | QVQLVESGGGLVQAGGSLRLSCAASGSTFGYYAMGWYRQAPGKERELVAAISRSGTRTYYADSVKGRFTISRDNAKYTVYLQMNSLKPEDTAVYYCAVKGPARGYDYWGQGTQVTVSS | high polyreactivity
33 | QVQLVESGGGLVQAGGSLSLSCAASGFIFGAYAMGWYRQAPRKERELVADITQNSGSTYYADSVKGRFTISRDNAKYTVYLQMNSVKPEVTAVYFCNADWETADDYWGQGTQVTVSS | low polyreactivity
34 | QVQLVESGVGLVQAGGSLRLLCAASGSIFTTYPMGWYRPAPGKERELVAAITSSSGSTYYADSVKGRFTISRDNAKNTVYLQMNSLKPEDTAVYYCNATYSAAVDYWGQGTQVTVSS | low polyreactivity
35 | QVQLVESGGGLVQAGGSLRLSCAASGSIFSGYVMGWYRQAPGKERELVAAISSGGSTYYADSVKGRFTISRDNAKNTVYLQMNSLKPEDTAVYYCAARSRKYGLLFYYWGQGTQVTVSS | high polyreactivity
36 | HVQLVESGGGLVQAGGSLRLSSAASGITFYHNAMGWYRQAPGKEMELVAVSSRGGSTYYADSVKGRFTISRDNAKNTVYLQMNSLKPEDTAVYYCNARFWSYRGQVWYYYWGQGTQVTVSS | high polyreactivity
37 | QDQIVESGGGLVQAGGSLRLSCSATGRTYVIYAMGWYRQAHGKERELVASIRRGGSTSYADSVKGRFTISRDNAKNTVYLQMKSLKPEDTAVYYCAAGAHRASSSGNGYWGQGSQVTVSS | high polyreactivity
38 | QVQLVESGGGLVQAGGSLRLSCAASGRTFTEYAMGWYRQAPGKERELVARISIGDSTYYADSVKGRFTISRDNAKNTVYLQMNSLKPEDTAVYYCNAEYSRSYRYDECYWGQGTQVTVSS | low polyreactivity
39 | QVQLVESGGGLVQAGGSLRLSCAASGYTFSYANAMGWYRQAPGKERELVASISSTGGRTYYADSVKGRFTISRDNAKNTVYLQMNSLKPEDTAVYYCASRYWRYGYWGQGTQVTVSS | high polyreactivity
40 | QVQLVESGGGLVQAGGSLRLSCAASGRTIGAYAMGWYRQAPGKEREFVAAITFGGGPTYYADSVKGRFTISRDNAKNTVYLQMNSLKPEDTAVYYCAKRIDLSLPYARYDYWGQVTQVTVSS | low polyreactivity
41 | QVQLVESRGRLVQAGGTLRLSCAASGNITSVYAMGWYRQAPGNERELVAAISGSGGSTYYADSVKGRFTISRDNAMNTVYLQMNSLKPEDTAVYYCAKGFQYQGNSYGYWGQGSQVTVSS | low polyreactivity
